Numbering of substitutions follows the chain as printed. Names and notes keep the numbering of the source.

One may read the stoichiometry N as the number of molecules, sites or subunits per partner or assembly.

Data set [1] deals with the molecule itself. The data set can be described thus: SEC; purified rh proSP-C BRICHOS variants on Superdex 200 GL.
Data set [2] concerns the molecule itself. Put plainly: SEC; rh Bri2 BRICHOS D148N monomer fraction at 0.5, 1, 5, 10, 15 and 100 µmol L^-1; monomer to dimer. (SEC sorts molecules by how far they enter the pores of the column.)
Data set [3] deals with the molecule itself. Put plainly: SEC; Bri2 BRICHOS species after thrombin removal of His6-NT* from the fusion protein's monomer, dimer and oligomer fractions; 20 mmol L^-1 NaPi, 0.2 mmol L^-1 EDTA.
Data set [4] deals with the molecule itself. Put plainly: other fluorescence titration; Trp fluorescence of 2 µmol L^-1 rh Bri2 BRICHOS T206W monomers, 20 mmol L^-1 NaPi, 0.2 mmol L^-1 EDTA, pH 6.3-8.0; excitation 280 nm; monomer to dimer.

B1: recombinant human (rh) wildtype proSP-C BRICHOS (domain or fragment, UniProt P11686 86-197, looked up)
chain: EHLVTTATFSIGSTGLVVYDYQQLLIAYKPAPGTCCYIMKIAPESIPSLEALTRKVHNFQMECSLQAKPAVPTSKLGQAEGRDAGSAPSGGDPAFLGMAVSTLCGEVPLYYI
notes: human prosurfactant protein C (proSP-C), BRICHOS domain, residues 86-197; By SEC mainly a trimer, with some dimers and monomers; also called rh proSP-C BRICHOS; wt proSP-C BRICHOS; source: E. coli Origami 2 (DE3) pLysS, purified (Ni-NTA, ion exchange QFF; thrombin cleavage); not shown: thioredoxin, N-terminal, cleaved
Regarding B1, in data set [1], the “stoichiometry N” value was found to be 3.

B2: rh proSP-C BRICHOS D105N (domain or fragment, human, UniProt P11686 86-197, looked up)
chain: B1 chain with D20N
notes: human prosurfactant protein C (proSP-C), BRICHOS domain, residues 86-197, with D105N; By SEC a trimer, with more dimers and less monomers than the wildtype; also called D105N mutant; source: E. coli Origami 2 (DE3) pLysS, purified (Ni-NTA, ion exchange QFF; thrombin cleavage); not shown: thioredoxin, N-terminal, cleaved
Consider B2, for which, in data set [1], the “stoichiometry N” value was determined as 3.

B3: rh Bri2 BRICHOS D148N (domain or fragment, human, UniProt Q9Y287 113-231, looked up)
chain: QTIEENIKIFEEEEVEFISVPVPEFADSDPANIVHNFNKKLTAYLDLNLDKCYVIPLNTSIVMPPRNLLELLINIKAGTYLPQSYLIHEHMVITDRIENIDHLGFFIYRLCHDKETYKL
notes: human integral membrane protein 2B (Bri2), BRICHOS domain, residues 113-231, with D148N; Isolated by SEC as monomer, dimer and oligomer fractions; the assay's format tells which fraction was used; also called D148N mutant; source: E. coli SHuffle T7, purified (Ni-NTA, thrombin cleavage, second Ni-NTA, SEC); not shown: His6, N-terminal, cleaved; NT* solubility tag, N-terminal, cleaved
Take B3: the “ratio of dimers to monomers at 0.5 µmol L^-1” value in data set [2] was ~1 dimers:monomers. In addition, the “stoichiometry N” value in data set [3] came out at 2.

B4: rh Bri2 BRICHOS T206W (domain or fragment, human, UniProt Q9Y287 113-231, looked up)
chain: B3 chain with N36D, T94W
notes: human integral membrane protein 2B (Bri2), BRICHOS domain, residues 113-231, with T206W; Monomer and dimer fractions were used for Trp fluorescence; also called rh Bri2 BRICHOS Trp mutant; source: E. coli SHuffle T7, purified (Ni-NTA, thrombin cleavage, second Ni-NTA, SEC); not shown: His6, N-terminal, cleaved; NT* solubility tag, N-terminal, cleaved
Take B4: in data set [4], the binding result is reported as “binds”.

The record behind these values is article doi:10.1101/2021.12.01.470723 (bioRxiv, 2021).
